# Columns and labels:
# [1] = test system: Lys1 (position 1, -----K-----); assay: NMR; conditions: ambient (SI general details say 1H NMR spectra were recorded at ambient temperature); none stated; pH adjusted with HCl/NaOH; free small peptide derivative in solution
# [2] = test system: Lys1 (position 1, -----KG----); assay: NMR; conditions: ambient (SI general details say 1H NMR spectra were recorded at ambient temperature); none stated; pH adjusted with HCl/NaOH; free small peptide derivative in solution
Substance,pKa [1],pKa [2]
Ac-Lys-CN (N-acetyl-lysine nitrile) (synthetic),approximately 10.4,
Ac-Lys-Gly-SH (N-acetyl-lysyl-glycine thioacid) (synthetic),,approximately 10.8
Ac-Lys-OH (N-alpha-acetyl-lysine) (synthetic),approximately 10.8,
Ac-Lys-SH (N-acetyl-lysine thioacid) (synthetic),approximately 10.8,

# Source: PMC9912261
